Measured values reported in patent publication US20170022269A1.

Experiments:
[1] = molecular target: Aβ(20-42) globulomer (human); assay: dot blot densitometry, antibody 0.2 µg/ml; column Aβ(20-42) globulomer (reference)
Aβ(1-42) fibrils (human) = Aβ(1-42) fibrils (human) (UniProt P05067); assay: co-pelleting with Aβ(1-42) fibrils, SDS-PAGE, optical density of the heavy chain in pellet / (pellet + supernatant)
Chain of Aβ(1-42) fibrils (human) (P05067 672-713): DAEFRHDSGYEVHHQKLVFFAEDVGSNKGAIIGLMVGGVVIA

Chain of Aβ(20-42) globulomer (human) (peptide, as listed by the source): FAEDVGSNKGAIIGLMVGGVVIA

relation between recognition of Aβ(20-42) globulomer and the respective Aβ form [1]: 1
antibody bound to fibrils [%] (Aβ(1-42) fibrils (human)): 98%
Substance: commercially available antibody 6E10 (Signet, Cat. no. 9320)
